Laboratory results from article PMC5290273 (Nature Communications, 2017).
Where a chain is given by its changes, count along the chain named. In names and notes the source's numbering stands. No end group written: not given here. *: point of attachment. 5FAM = O=C1OC2(c3ccc(O)cc3Oc3cc(O)ccc32)c2ccc(C(=O)*)cc21; GABA = NCCCC(=O)O

T1: Sumo-ELL2^Occ (human, UniProt O00472 519-640)
T1 sequence (looked up): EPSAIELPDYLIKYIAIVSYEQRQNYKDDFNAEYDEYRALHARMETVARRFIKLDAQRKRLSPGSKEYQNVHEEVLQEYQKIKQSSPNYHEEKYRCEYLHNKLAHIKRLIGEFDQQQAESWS

T2: Sumo-ELL2^Occ, wild type (human, UniProt O00472 519-640)
T2 sequence (looked up): T1 sequence (looked up)

T3: ELL2^Occ (ELL2 residues 519–640), the ELL2 part of the crystallised fusion (human, UniProt O00472 519-640, selenomethionine (SeMet crystals used for phasing and refinement))
T3 sequence (looked up): T1 sequence (looked up)

B1: His6-AFF4^ELLBow L331D (domain or fragment, human, UniProt Q9UHB7 301-351, looked up)
chain: PSQPLDASASGDVSCVDEILKEMTHSWPPPDTAIHTPCKTEPSKFPFPTKE
B2: His6-tagged wild-type AFF4^ELLBow (AFF4 301–351) (peptide, UniProt Q9UHB7 301-351, looked up)
chain: B1 chain with D31L
B3: AFF4^ELLBow (AFF4 residues 301–351), the AFF4 part of the crystallised fusion (domain or fragment, human, UniProt Q9UHB7 301-351, looked up)
chain: B1 chain with D31L
modifications: not fully specified (residue 23); cysteine pairing not given here
B4: His6-AFF4^ELLBow T332K (domain or fragment, human, UniProt Q9UHB7 301-351, looked up)
chain: B1 chain with D31L, T32K
B5: His-tagged AFF4^ELLBow (301–351) W327D (peptide, UniProt Q9UHB7 301-351, looked up)
chain: B1 chain with W27D, D31L
B6: GST-ELL2 (519–640) H608E (domain or fragment, human, UniProt O00472 519-640, looked up)
chain: T1 sequence (looked up) with H90E
B7: His6-AFF4^ELLBow I319D/L320D (domain or fragment, human, UniProt Q9UHB7 301-351, looked up)
chain: B1 chain with I19D, L20D, D31L
B8: His-tagged AFF4^ELLBow (301–351) I319D/L320D (peptide, UniProt Q9UHB7 301-351, looked up)
chain: B1 chain with I19D, L20D, D31L
B9: His6-AFF4^ELLBow P342D (domain or fragment, human, UniProt Q9UHB7 301-351, looked up)
chain: B1 chain with D31L, P42D
B10: His-tagged AFF4^ELLBow (301–351) L331D (peptide, UniProt Q9UHB7 301-351, looked up)
chain: B1 chain
B11: GST-ELL2 (519–640) H559E (domain or fragment, human, UniProt O00472 519-640, looked up)
chain: T1 sequence (looked up) with H41E
B12: His6-AFF4^ELLBow K321P (domain or fragment, human, UniProt Q9UHB7 301-351, looked up)
chain: B1 chain with K21P, D31L
B13: His6-AFF4^ELLBow I334D (domain or fragment, human, UniProt Q9UHB7 301-351, looked up)
chain: B1 chain with D31L, I34D
B14: His6-AFF4^ELLBow W327D (domain or fragment, human, UniProt Q9UHB7 301-351, looked up)
chain: B1 chain with W27D, D31L
B15: His-tagged AFF4^ELLBow (301–351) I319D/L320D/M323D (peptide, UniProt Q9UHB7 301-351, looked up)
chain: B1 chain with I19D, L20D, M23D, D31L
B16: GST-ELL2 (519–640) K625T (domain or fragment, human, UniProt O00472 519-640, looked up)
chain: T1 sequence (looked up) with K107T
B17: His-tagged AFF4^ELLBow (301–351) E322H (peptide, UniProt Q9UHB7 301-351, looked up)
chain: B1 chain with E22H, D31L
B18: His6-AFF4^ELLBow M323D (domain or fragment, human, UniProt Q9UHB7 301-351, looked up)
chain: B1 chain with M23D, D31L
B19: His6-AFF4^ELLBow E322H (domain or fragment, human, UniProt Q9UHB7 301-351, looked up)
chain: B1 chain with E22H, D31L
B20: His6-AFF4^ELLBow L331D/I334D (domain or fragment, human, UniProt Q9UHB7 301-351, looked up)
chain: B1 chain with I34D
B21: His-tagged AFF4^ELLBow (301–351) M323D (peptide, UniProt Q9UHB7 301-351, looked up)
chain: B1 chain with M23D, D31L
B22: His6-AFF4^ELLBow F345D/F347D (domain or fragment, human, UniProt Q9UHB7 301-351, looked up)
chain: B1 chain with D31L, F45D, F47D
B23: His-tagged AFF4^ELLBow (301–351) double 328–329 Pro–Gly mutant (peptide, UniProt Q9UHB7 301-351, looked up)
chain: B1 chain with P28G, P29G, D31L
B24: His-tagged AFF4^ELLBow (301–351) I334D (peptide, UniProt Q9UHB7 301-351, looked up)
chain: B1 chain with D31L, I34D
B25: His-tagged AFF4^ELLBow (301–351) P342D (peptide, UniProt Q9UHB7 301-351, looked up)
chain: B1 chain with D31L, P42D
B26: His6-AFF4^ELLBow D317P/E318P (domain or fragment, human, UniProt Q9UHB7 301-351, looked up)
chain: B1 chain with D17P, E18P, D31L
B27: His6-AFF4^ELLBow V316D (domain or fragment, human, UniProt Q9UHB7 301-351, looked up)
chain: B1 chain with V16D, D31L
B28: His-tagged AFF4^ELLBow (301–351) F345D/F347D (peptide, UniProt Q9UHB7 301-351, looked up)
chain: B1 chain with D31L, F45D, F47D
B29: AFF4 WT, 318-350 peptide (peptide, UniProt Q9UHB7 318-350, looked up)
peptide: EILKEMTHSWPPPLTAIHTPCKTEPSKFPFPTK
B30: fluorescently labelled AFF1^ELLBow peptide 358–390 (peptide)
peptide: {5FAM-GABA}-EILKEMTHSWPPPLTAIHTPSTAEPSKFPFPTK-NH2
SMILES: CC[C@H](C)[C@H](NC(=O)[C@H](C)NC(=O)[C@@H](NC(=O)[C@H](CC(C)C)NC(=O)[C@@H]1CCCN1C(=O)[C@@H]1CCCN1C(=O)[C@@H]1CCCN1C(=O)[C@H](Cc1c[nH]c2ccccc12)NC(=O)[C@H](CO)NC(=O)[C@H](Cc1c[nH]cn1)NC(=O)[C@@H](NC(=O)[C@H](CCSC)NC(=O)[C@H](CCC(=O)O)NC(=O)[C@H](CCCCN)NC(=O)[C@H](CC(C)C)NC(=O)[C@@H](NC(=O)[C@H](CCC(=O)O)NC(=O)CCCNC(=O)c1ccc2c(c1)C(=O)OC21c2ccc(O)cc2Oc2cc(O)ccc21)[C@@H](C)CC)[C@@H](C)O)[C@@H](C)O)C(=O)N[C@@H](Cc1c[nH]cn1)C(=O)N[C@H](C(=O)N1CCC[C@H]1C(=O)N[C@@H](CO)C(=O)N[C@H](C(=O)N[C@@H](C)C(=O)N[C@@H](CCC(=O)O)C(=O)N1CCC[C@H]1C(=O)N[C@@H](CO)C(=O)N[C@@H](CCCCN)C(=O)N[C@@H](Cc1ccccc1)C(=O)N1CCC[C@H]1C(=O)N[C@@H](Cc1ccccc1)C(=O)N1CCC[C@H]1C(=O)N[C@H](C(=O)N[C@@H](CCCCN)C(N)=O)[C@@H](C)O)[C@@H](C)O)[C@@H](C)O
notes: also called fluorescent peptide

Columns and labels:
[1] = biological target: Sumo-ELL2^Occ, wild type (human) (UniProt O00472); assay: fluorescence polarisation
[2] = biological target: ELL2^Occ–(Gly-Ser)4–AFF4^ELLBow (human) (UniProt O00472); assay: SEC; Hiload 16/60 (GE) gel filtration; elution volumes; 44 kDa and 17 kDa markers shown in panel a
[3] = biological target: AFF4, endogenous (human (endogenous in HEK 293T)) (UniProt Q9UHB7)
Sequence of AFF4, endogenous (human (endogenous in HEK 293T)) (Q9UHB7 whole entry): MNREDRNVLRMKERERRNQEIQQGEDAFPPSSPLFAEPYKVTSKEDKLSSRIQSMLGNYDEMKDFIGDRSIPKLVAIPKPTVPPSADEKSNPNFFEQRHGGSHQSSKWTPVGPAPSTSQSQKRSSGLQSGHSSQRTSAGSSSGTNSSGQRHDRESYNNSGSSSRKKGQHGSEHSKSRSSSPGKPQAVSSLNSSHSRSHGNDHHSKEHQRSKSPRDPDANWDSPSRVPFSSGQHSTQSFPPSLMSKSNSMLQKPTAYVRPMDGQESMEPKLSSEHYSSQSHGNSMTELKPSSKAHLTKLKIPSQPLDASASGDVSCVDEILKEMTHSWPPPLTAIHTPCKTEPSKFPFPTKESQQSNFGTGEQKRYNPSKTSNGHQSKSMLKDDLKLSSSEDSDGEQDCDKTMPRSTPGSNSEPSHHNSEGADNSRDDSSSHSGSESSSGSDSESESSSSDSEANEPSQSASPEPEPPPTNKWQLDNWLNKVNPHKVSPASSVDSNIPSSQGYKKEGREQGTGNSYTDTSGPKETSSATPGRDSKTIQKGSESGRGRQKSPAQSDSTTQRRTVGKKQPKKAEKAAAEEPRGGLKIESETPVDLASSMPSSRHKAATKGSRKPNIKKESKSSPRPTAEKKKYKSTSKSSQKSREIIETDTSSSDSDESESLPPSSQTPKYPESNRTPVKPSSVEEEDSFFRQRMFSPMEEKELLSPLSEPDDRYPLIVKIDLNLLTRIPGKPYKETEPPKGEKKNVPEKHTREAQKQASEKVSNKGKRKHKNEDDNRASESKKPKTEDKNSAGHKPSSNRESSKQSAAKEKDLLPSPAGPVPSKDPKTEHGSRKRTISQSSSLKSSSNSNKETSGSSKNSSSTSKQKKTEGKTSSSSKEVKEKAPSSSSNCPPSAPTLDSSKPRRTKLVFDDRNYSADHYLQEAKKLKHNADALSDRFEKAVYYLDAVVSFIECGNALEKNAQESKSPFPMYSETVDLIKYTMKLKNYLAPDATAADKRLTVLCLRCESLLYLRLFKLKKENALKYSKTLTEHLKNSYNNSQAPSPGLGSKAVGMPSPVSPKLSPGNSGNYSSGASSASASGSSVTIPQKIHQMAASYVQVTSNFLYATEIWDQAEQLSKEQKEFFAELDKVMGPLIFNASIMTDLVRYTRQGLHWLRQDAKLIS

Sumo-ELL2^Occ (human) = Sumo-ELL2^Occ (human) (UniProt O00472); assay: fluorescence polarisation
Sumo-ELL2^Occ = biological target: T1, Sumo-ELL2^Occ; assay: fluorescence polarisation; details: both partners purified
Sumo-ELL2^Occ, wild type = biological target: T2, Sumo-ELL2^Occ, wild type; assay: fluorescence polarisation; details: both partners purified
[4] = biological target: T3, ELL2^Occ (ELL2 residues 519–640), the …; assay: crystal structure; details: both partners purified
[5] = biological target: B2; assay: pull-down; details: both partners purified

His-tagged AFF4^ELLBow (301–351) D317P/E317P (from UniProt Q9UHB7 301-351) (peptide)
other [1]: 10 fold

ELL2^Occ–(Gly-Ser)4–AFF4^ELLBow (from UniProt O00472 519-640; Q9UHB7 301-351)
stoichiometry N [2]: 2

HA-tagged ELL2^H559E/H608E/N619A/K625T (from UniProt O00472 1-640) (natural protein)
other (fold less than wild type) [3]: 5

His6-AFF4^ELLBow P328G/P329G (from UniProt Q9UHB7 301-351) (domain or fragment)
Kd (Sumo-ELL2^Occ (human)): 270 nM

B1
Kd (Sumo-ELL2^Occ): 1600 ± 310 nM

B2
Kd (Sumo-ELL2^Occ, wild type): 86 nM

B3
binding result [4]: binds

B4
Kd (Sumo-ELL2^Occ): 69 ± 37 nM

B5
other (Sumo-ELL2^Occ, wild type): 4 fold

B6
binding result [5]: binds

B7
Kd (Sumo-ELL2^Occ): 5400 ± 1870 nM

B8
other (Sumo-ELL2^Occ, wild type): > 25 fold

B9
Kd (Sumo-ELL2^Occ): 200 ± 50 nM

B10
other (Sumo-ELL2^Occ, wild type): ~20 fold

B11
binding result [5]: binds

B12
Kd (Sumo-ELL2^Occ): 240 ± 60 nM

B13
Kd (Sumo-ELL2^Occ): 670 ± 210 nM

B14
Kd (Sumo-ELL2^Occ): 370 ± 86 nM

B15
Kd (Sumo-ELL2^Occ, wild type): > 3000 nM

B16
binding result [5]: binds

B17
other (Sumo-ELL2^Occ, wild type): < 2 fold

B18
Kd (Sumo-ELL2^Occ): 2700 ± 1140 nM

B19
Kd (Sumo-ELL2^Occ): 130 ± 33 nM

B20
Kd (Sumo-ELL2^Occ): 1900 ± 510 nM

B21
other (Sumo-ELL2^Occ, wild type): > 25 fold

B22
Kd (Sumo-ELL2^Occ): 130 ± 58 nM

B23
other (Sumo-ELL2^Occ, wild type): 3 fold

B24
other (Sumo-ELL2^Occ, wild type): 8 fold

B25
other (Sumo-ELL2^Occ, wild type): ~3 fold

B26
Kd (Sumo-ELL2^Occ): 800 ± 180 nM

B27
Kd (Sumo-ELL2^Occ): 230 ± 48 nM

B28
other (Sumo-ELL2^Occ, wild type): < 2 fold

B29
Kd (Sumo-ELL2^Occ): 4000 ± 1570 nM

B30
binding result (Sumo-ELL2^Occ, wild type): binds
